Measured values as given in patent publication US20120270914A1 (Stanford University, published 2012).

Molecular target: NFL-c-Myc (firefly, UniProt P08659 1-398 = luciferase, phosphorylated in the cells at S62 and T58 (c-Myc numbering))
Test: cell-based or functional assay

Sequence of NFL-c-Myc (P08659 other isoform, or with tags, fused parts or gaps limits assumed): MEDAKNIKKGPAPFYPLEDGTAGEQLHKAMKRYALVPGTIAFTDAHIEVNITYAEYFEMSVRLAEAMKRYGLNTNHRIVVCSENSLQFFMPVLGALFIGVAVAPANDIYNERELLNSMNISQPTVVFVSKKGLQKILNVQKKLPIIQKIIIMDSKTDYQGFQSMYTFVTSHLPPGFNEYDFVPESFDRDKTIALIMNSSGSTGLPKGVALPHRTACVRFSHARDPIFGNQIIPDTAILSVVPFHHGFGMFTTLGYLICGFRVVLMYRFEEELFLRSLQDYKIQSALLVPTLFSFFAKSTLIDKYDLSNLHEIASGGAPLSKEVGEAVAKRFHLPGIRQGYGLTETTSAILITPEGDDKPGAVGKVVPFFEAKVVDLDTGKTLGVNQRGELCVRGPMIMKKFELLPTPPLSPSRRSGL

B1: GSK 35-433-CFL (other, not shown: large carriers)
chain: SKVTTVVATPGQGPDRPQEVSYTDTKVIGNGSFGVVYQAKLCDSGELVAIKKVLQDKRFKNRELQIMRKLDHCNIVRLRYFFYSSGEKKDEVYLNLVLDYVPETVYRVARHYSRAKQTLPVIYVKLYMYQLFRSLAYIHSFGICHRDIKPQNLLLDPDTAVLKLCDFGSAKQLVRGEPNVSYICSRYYRAPELIFGATDYTSSIDVWSAGCVLAELLLGQPIFPGDSGVDQLVEIIKVLGTPTREQIREMNPNYTEFKFPQIKAHPWTKDSSGTGHFTSGVRVFRPRTPPEAIALCSRLLEYTPTARLTPLEACAHSFFDELRDPNVKLPNGRDTPALFNFTTQELSSNPPLATILIPPHARIQAAASTPTNATAASDANTGDRGQTNNAASASASNST
B1 was tested. Which “complemented FL activity of SKBR3 xenografts in nude mice, normalized to hRL activity, compared with pcDNA3.1(+) vector” value did it give?
The value was 10.6 fold.

B2: GSK Full-CFL (other, not shown: large carriers)
chain: MSGRPRTTSFAESCKPVQQPSAFGSMKVSRDKDGSKVTTVVATPGQGPDRPQEVSYTDTKVIGNGSFGVVYQAKLCDSGELVAIKKVLQDKRFKNRELQIMRKLDHCNIVRLRYFFYSSGEKKDEVYLNLVLDYVPETVYRVARHYSRAKQTLPVIYVKLYMYQLFRSLAYIHSFGICHRDIKPQNLLLDPDTAVLKLCDFGSAKQLVRGEPNVSYICSRYYRAPELIFGATDYTSSIDVWSAGCVLAELLLGQPIFPGDSGVDQLVEIIKVLGTPTREQIREMNPNYTEFKFPQIKAHPWTKDSSGTGHFTSGVRVFRPRTPPEAIALCSRLLEYTPTARLTPLEACAHSFFDELRDPNVKLPNGRDTPALFNFTTQELSSNPPLATILIPPHARIQAAASTPTNATAASDANTGDRGQTNNAASASASNST
B2 was tested. Which “complemented FL activity (BLI, SKBR3 cells), compared with the pairing of GSK Full-CFL and NFL-SH2-SH2” value did it give?
Its value is greater than 10 fold.
